The results in this text go back to patent publication US6177557, “High affinity ligands of basic fibroblast growth factor and thrombin” (NeXstar Pharmaceuticals, Inc.).

The target of data set [1] is T1, thrombin (alpha) (human, UniProt P00734;P00734 P00734:328-363,P00734:364-622). Briefly: filter; ERL thrombin, 1 mM MgCl2, 37 C.
Data set [2] has as its target T2, basic fibroblast growth factor (bFGF) (UniProt P09038 P09038:135-288). Put plainly: filter; PBS, 0.01% HSA, 1 mM DTT, 37 C; +/-0.2. Conditions: tags: Bachem California, 18 kDa, 154 aa; 125I-labeled for receptor assays. Here is the method: (§1) This affinity screening allowed identification of those ligands with highest affinity for bFGF. Binding of a group of these ligands was analyzed over a range of bFGF concentrations (FIG. 5) and their dissociation constants.(Kd's) were determined as described (Jellinek et al. (1993) Proc. Natl. Acad. Sci. USA 90:11227–11231) (Table IX). RNA concentrations were determined from their absorbance reading at […] (and were typically <100 pM). Binding reactions were done at 37° C. in phosphate buffered saline containing 0.01% human serum albumin and 1 mM DTT.

In data set [3] the target is T2, basic fibroblast growth factor (bFGF). Put plainly: filter; tested for affinity (*), Family 2; no value given. Conditions: tags: Bachem California, 154 aa, 18 kDa.
For data set [4] the target is unchanged. Put plainly: competition; displacement from low-affinity receptor on BHK cells; high-affinity receptor >1 uM. Conditions: tags: Bachem California, 18 kDa, 154 aa; 125I-labeled for receptor assays; label: 32P. Here is the method: Additionally, modified RNA ligands 21A (SEQ ID NO:104), 38B (SEQ ID NO:114) and Random RNAs were tested.
Receptor Binding Studies. bFGF was labeled with ^125I by the Iodo-Gen (Pierce) procedure as described by Moscatelli (1987) J. Cell. Physiol. 131:123. […] The amount of ^125I-bFGF bound to the low- and the high-affinity receptor sites was determined as described by Moscatelli (1987) supra.

The target of data set [5] is T3, vascular endothelial growth factor (VEGF) (UniProt P15692-4 P15692-4:27-191). Briefly: filter; specificity, data not shown. Conditions: chain copies: 2; label: 32P.
Data set [6] addresses T1, thrombin (alpha). Put plainly: filter; specificity, data not shown.
Data set [7] concerns the target acidic FGF (UniProt P05230 P05230:16-155). Briefly: filter; specificity, data not shown. The following applies: label: 32P.
For data set [8], the target named is antithrombin III (UniProt P01008 P01008:33-464). Briefly: filter; specificity, data not shown. Conditions: label: 32P.
Data set [9] concerns the target T2, basic fibroblast growth factor (bFGF). Briefly: filter; tested for affinity (*), Family 5; no value given. The following applies: tags: Bachem California, 154 aa, 18 kDa.
Data set [10] has as its target T1, thrombin (alpha). Briefly: filter; 100 mM NaCl, 50 mM Tris pH 7.7, 1 mM DTT, 1 mM MgCl2, 37 C.
In data set [11] the target is T1, thrombin (alpha). Briefly: filter; curve only in figure.
Data set [12] concerns the target T2, basic fibroblast growth factor (bFGF). Briefly: filter; tested for affinity (*), Family 3; no value given. The following applies: tags: Bachem California, 154 aa, 18 kDa.
Data set [13] has the same target. Briefly: filter; PBS, 0.01% HSA, 1 mM DTT, 37 C; +/-0.4. The following applies: tags: Bachem California, 18 kDa, 154 aa; 125I-labeled for receptor assays. Here is the method:
as §1

Data set [14] has as its target T1, thrombin (alpha). Put plainly: filter; 30% binding at 300 nM tracer is not separately tabulated; curve in figure.
For data set [15], the target named is T1, thrombin (alpha). Put plainly: filter; curve only in figure; ERL thrombin.
The target in data set [16] is T2, basic fibroblast growth factor (bFGF). Put plainly: filter; PBS, 0.01% HSA, 1 mM DTT, 37 C; +/-1.1. The following applies: tags: Bachem California, 18 kDa, 154 aa; 125I-labeled for receptor assays. The protocol: as §1
Data set [17] addresses human chorionic gonadotropin (human, UniProt P01215;P0DN86 P01215:25-116,P0DN86:21-165). Put plainly: filter. The following applies: 6-base G-C stem with blunt end.
Data set [18] concerns the target T3, vascular endothelial growth factor …. Put plainly: filter. The following applies: chain copies: 2; 6-base G-C stem with blunt end.
Data set [19] concerns the target T2, basic fibroblast growth factor (bFGF). Put plainly: filter. The following applies: tags: Bachem California, 18 kDa, 154 aa; 125I-labeled for receptor assays; 6-base G-C stem with blunt end. Here is the method:
In order to eliminate higher order structures, all DNA solutions were heated to 90° C. in PBS for 2–3 minutes and cooled on ice prior to incubation with protein. Relative binding affinity of individual ligands to bFGF cannot be predicted from sequence information. The majority of sequence isolates were therefore screened for their ability to bind to bFGF by measuring the fraction of radiolabeled DNA bound to nitrocellulose filters following incubation with 1 nM protein. […] Binding of these select isolates was then analyzed in more detail.
Those ligands are M225, M19, m234, M235, and D12 (SEQ ID NOS:359, 353, 387, 360, 332). The minimum size of the region necessary for binding was determined to be 35 bases for M225, M19 and D12 (See Truncations, Table XXI M225t3 (SEQ ID NO:364), M19t2 (SEQ ID NO:365), D12t2 (SEQ ID NO:341)). The ligand with the smallest essential sequence, m234, was isolated from Family 2, Experiment 3 and contains 24 nucleotides (m234t2 (SEQ ID NO:391)). The truncated ligands were tested for binding to bFGF. After truncation, ligands M225t3, M19t2, D12t2, M235t2, and m234t2 have kd values of 0.7 nM, 1 nM, 1 nM, 1 nM, and 6 nM respectively (Table XXII). All five of the truncated molecules lost some of their affinity for bFGF in comparison to the full length ligands. The binding affinity is regained when an additional G-C base pair is added to the blunt end stem of M225t3. This molecule is termed M225t3GC (SEQ ID NO:443). The binding of M225t3GC is 0.2 nM compared to 0.7 nM for M225t3 without the additional base pair (Table XXII).

Data set [20] shares this target. Briefly: filter; PEG 3400 conjugate. The following applies: tags: Bachem California, 18 kDa, 154 aa; 125I-labeled for receptor assays.
Data set [21] has the same target. Put plainly: filter; PBS, 0.01% HSA, 1 mM DTT, 37 C; +/-0.5. Conditions: tags: Bachem California, 18 kDa, 154 aa; 125I-labeled for receptor assays. The protocol: as §1
The target is the same in data set [22]. Put plainly: filter; PBS, 0.01% HSA, 1 mM DTT, 37 C; +/-0.1. The following applies: tags: Bachem California, 18 kDa, 154 aa; 125I-labeled for receptor assays. The protocol: as §1

T2 sequence (P09038 135-288, one chain of several): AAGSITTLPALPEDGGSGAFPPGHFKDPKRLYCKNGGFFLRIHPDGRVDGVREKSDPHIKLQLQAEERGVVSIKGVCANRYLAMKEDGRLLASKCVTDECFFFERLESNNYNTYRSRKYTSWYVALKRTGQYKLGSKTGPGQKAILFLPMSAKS
T3 sequence (P15692 other isoform, or with tags, fused parts or gaps): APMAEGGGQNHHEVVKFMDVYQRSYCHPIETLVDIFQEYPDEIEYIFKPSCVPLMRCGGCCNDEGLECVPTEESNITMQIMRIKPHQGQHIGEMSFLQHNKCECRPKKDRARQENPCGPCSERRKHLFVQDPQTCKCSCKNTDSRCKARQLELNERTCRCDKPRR
Sequence of human chorionic gonadotropin (P01215 25-116, chain 1 of 2, other chains not shown): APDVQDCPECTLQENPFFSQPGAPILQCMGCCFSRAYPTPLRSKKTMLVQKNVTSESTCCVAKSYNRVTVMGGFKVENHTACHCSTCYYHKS
Sequence of acidic FGF (P05230 16-155, one chain of several): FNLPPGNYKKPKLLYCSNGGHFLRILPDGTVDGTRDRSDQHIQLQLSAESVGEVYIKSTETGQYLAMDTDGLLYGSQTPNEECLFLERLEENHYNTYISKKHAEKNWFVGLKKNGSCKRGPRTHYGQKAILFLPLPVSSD
Sequence of antithrombin III (P01008 33-464, one chain of several): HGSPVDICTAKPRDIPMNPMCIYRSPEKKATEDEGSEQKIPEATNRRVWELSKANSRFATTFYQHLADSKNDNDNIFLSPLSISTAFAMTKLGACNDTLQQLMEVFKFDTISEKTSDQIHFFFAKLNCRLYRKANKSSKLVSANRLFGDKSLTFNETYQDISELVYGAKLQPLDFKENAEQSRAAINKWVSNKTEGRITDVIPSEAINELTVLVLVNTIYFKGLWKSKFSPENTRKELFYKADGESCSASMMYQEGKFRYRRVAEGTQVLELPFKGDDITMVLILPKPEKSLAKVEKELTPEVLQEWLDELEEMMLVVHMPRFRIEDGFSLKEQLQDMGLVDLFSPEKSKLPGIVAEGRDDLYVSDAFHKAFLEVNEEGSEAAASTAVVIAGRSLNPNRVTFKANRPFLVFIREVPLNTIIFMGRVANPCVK

B1: G15D (ssDNA)
DNA: GGTTGGTGTGGTTGG
For B1, in data set [1], the Kd (commonly the concentration at which binding is half-saturated) was around 200 nM.

B2: 2'-NH2 59A (ssRNA)
RNA: GGGAGACAAGAAUAACGCUCAAUGUGUGGAAGGGUACCUGAGUGGGGAUGGGUUCGACAGGAGGCUCACAACAGGC
modifications: 2'-NH2 pyrimidines
On to B2, for which the Kd in data set [2] was 1.2 nM.

B3: d46 (ssDNA)
DNA: ATCCGCCTGATTAGCGATACTAACACGGTCTGCTGCGACCCCTCGTACTAACGGTACCAGTACTTGAGCAAAATCACCTGCAGGGG
As to B3, the binding result in data set [3] is “binds”.

B4: 12A (ssRNA)
RNA: GGGAGCUCAGAAUAAACGCUCAAGGGGCAACGCUACAGACAAGUGCACCCAACUUCGACAUGAGGCCCGGAUCCGGC
Take B4: the IC50 (in general, the concentration that gives 50% inhibition) in [4] was above 100 nM. Besides, the Kd in data set [5], in [6], in [7] and in data set [8] was above 300 nM each time.

B5: d9 (ssDNA)
DNA: ATCCGCCTGATTAGCGATACTCGAAGAGTAGGAGGCGATCCGCTCCGTATCAGGTCACATAGGACTTGAGCAAAATCACCTGCAGGGG
Take B5: the binding result in data set [9] is on record as “binds”.

B6: thrombin Class II RNA 27 (ssRNA)
RNA: AGAUGCCUGUCGAGCAUGCUGGUGCGGCUUUGGGCGCCGUGCUUGACGUAGCUAAACAGCUUUGUCGACGGG
B6 returned a Kd in data set [10] of around 60 nM.

B7: thrombin Class I RNA 16 (ssRNA)
RNA: AGAUGCCUGUCGAGCAUGCUGCAUCCGGAUCGAAGUUAGUAGGCCGAGGUGGUAGCUAAACAGCUUUGUCGACGGG
As for B7, the Kd in data set [10] is around 30 nM.

B8: thrombin Class I RNA 6 (ssRNA)
RNA: AGAUGCCUGUCGAGCAUGCUGAGGAUCGAAGUUAGUAGGCUUUGUGUGCUCGUAGCUAAACAGCUUUGUCGACGGG
As for B8, the binding result in data set [11] is recorded as “binds”.

B9: d1 (ssDNA)
DNA: ATCCGCCTGATTAGCGATACTACACCCAACCCCCTAAGATTTTAGAGCAACTCGGCGCAACACTTGAGCAAAATCACCTGCAGGGG
Consider B9, for which, in data set [9], the binding result is “binds”.

B10: m219 (ssDNA)
DNA: GGGAGGACGATGCGGGCAGCGACCGCGGTACAAGGCATAGGGTACAGACGACGACGGGGA
In the case of B10, the binding result in data set [12] is reported as “binds”.

B11: d44 (ssDNA)
DNA: ATCCGCCTGATTAGCGATACTGACCACGACTGATGCGTCGCCTCCCGATAGGCAGTTACCCACTTGAGCAAAATCACCTGCAGGGG
In the case of B11, the binding result in data set [3] is reported as “binds”.

B12: thrombin Class I RNA 18 (ssRNA)
RNA: AGAUGCCUGUCGAGCAUGCUGAUUGUUGCGGAUCGAAGUGAGUAGGCGCUAGUAGCUAAACAGCUUUGUCGACGGG
Take B12: the binding result in [11] is listed as “binds”.

B13: 2'-NH2 34B (ssRNA)
RNA: GGGAGGACGAUGCGGAACGGGAGGUACGAGAGCGGGAGCGCAUAAAUAGGAAACUCCUUGCACGUCAGACGACUCGCCCGA
modifications: 2'-NH2 pyrimidines
B13: in [13], binding was characterised by a dissociation constant (Kd) of 2 nM. This counts as single-digit nanomolar.

B14: 33R (Class II clone 27 hairpin) (ssRNA)
RNA: GAGCAUGCUGGUGCGGCUUUGGGCGCCGUGCUU
As to B14, the binding result in [14] is “binds”.

B15: 24R (Class I clone 16 hairpin) (ssRNA)
RNA: CCGGAUCGAAGUUAGUAGGCCGAG
As to B15, the binding result in data set [15] is “binds”.

B16: 2'-NH2 48B (ssRNA)
RNA: GGGAGGACGAUGCGGCAGGAUAGGAUGGGGUCGGAACCGUGUAUCAUAACGAGUCAUCUCCUGGUCAGACGACUCGCCCGA
modifications: 2'-NH2 pyrimidines
The molecule B16 displayed a Kd in data set [16] of 6.7 nM.

B17: M225t3 (ssDNA)
DNA: GCGGGGCTACGTACCGGGGCTTTGTAAAACCCCGC
Regarding B17, the equilibrium dissociation constant (Kd) in data set [17] is above 200 nM; in [18], above 200 nM; in data set [19] it was 0.7 nM.

B18: PEG-M225t3 (ssDNA)
DNA: B17 DNA
modifications: PEG 3400 on 3' amino linker
On to B18, for which the Kd in data set [20] came out at 1 nM.

B19: 2'-NH2 72B (ssRNA)
RNA: GGGAGGACGAUGCGGCUCAGCAUCCAGGAAGGGGACUUGGUAGGGCACCAUCGAGAUCUUGGCGUCAGACGACUCGCCCGA
modifications: 2'-NH2 pyrimidines
B19 showed a Kd in data set [21] of 3.4 nM.

B20: 2'-NH2 21A (ssRNA)
RNA: GGGAGACAAGAAUAACGCUCAAGUAGACUAAUGUGUGGAAGACAGCGGGUGGUUCGACAGGAGGCUCACAACAGGC
modifications: 2'-NH2 pyrimidines
B20: binding in [22] was characterised by a dissociation constant (Kd) of 1.3 nM.

B21: 2'-NH2 22B (ssRNA)
RNA: GGGAGGACGAUGCGGCGUGGUUCCGUGGGUGGUGAGAUGAGACUUAAUCAGUUCGUAGACCGGUCAGACGACUCGCCCGA
modifications: 2'-NH2 pyrimidines
B21 displayed a Kd in [21] of 2.8 nM. This counts as single-digit nanomolar.
